Data reported in patent publication US20240317855A1 (EUREKA THERAPEUTICS, published 2024).

Biological target: GPC3 (glypican-3) on HEPG2 human liver cancer cells (human, UniProt P51654 25-580)
Assay: cell-based or functional assay

Sequence of GPC3 (glypican-3) on HEPG2 human liver cancer cells (P51654 25-580): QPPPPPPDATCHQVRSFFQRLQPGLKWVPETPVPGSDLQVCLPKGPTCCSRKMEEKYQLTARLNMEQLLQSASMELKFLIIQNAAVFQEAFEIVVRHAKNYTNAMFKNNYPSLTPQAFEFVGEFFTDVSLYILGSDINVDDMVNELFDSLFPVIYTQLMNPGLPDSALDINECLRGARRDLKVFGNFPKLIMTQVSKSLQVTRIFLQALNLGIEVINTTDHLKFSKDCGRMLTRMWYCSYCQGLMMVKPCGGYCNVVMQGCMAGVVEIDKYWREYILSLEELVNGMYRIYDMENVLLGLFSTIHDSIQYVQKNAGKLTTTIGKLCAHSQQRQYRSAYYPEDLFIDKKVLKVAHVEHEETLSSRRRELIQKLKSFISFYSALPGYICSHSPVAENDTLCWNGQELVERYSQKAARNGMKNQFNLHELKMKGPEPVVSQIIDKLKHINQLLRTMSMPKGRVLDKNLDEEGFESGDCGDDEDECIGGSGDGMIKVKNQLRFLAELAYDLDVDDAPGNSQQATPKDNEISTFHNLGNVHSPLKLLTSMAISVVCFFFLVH

B1: anti-GPC3 CSR (chimeric co-stimulatory receptor: anti-GPC3 scFv fused to CD28 transmembrane and intracellular signaling sequences) (other)
chain: QSVLTQPPSVSAAPGQRVTISCSGTRSNIGSDYVSWYQHLPGTAPKLLVYGDNLRPSGIPDRFSASKSGTSATLGITGLQTGDEADYYCGTWDYTLNGVVFGGGTKLTVLGSRGGGGSGGGGSGGGGSLEMAQVQLVESGGGLVQPGGSLRLSCAASGFTFSSYAMSWVRQAPGKGLEWVSVIYSGGSSTYYADSVKGRFTISRDNSKNTLYLQMNSLRAEDTAVYYCARTSYLNHGDYWGQGTLVTVSSAAAIEVMYPPPYLDNEKSNGTIIHVKGKHLCPSPLFPGPSKPFWVLVVVGGVLACYSLLVTVAFIIFWVRSKRSRLLHSDYMNMTPRRPGPTRKHYQPYAPPRDFAAYRS
**Q.** How did the “specific killing of HEPG2 (AFP+/GPC3+) target cells by T cells expressing anti-AFP caTCR-1 (caTCR-1-0 or caTCR-1-TM5) and the anti-GPC3 CSR; Cytox 96 LDH assay, E:T 2.5:1, 16 hr” value turn out when B1 was run?
**A.** 55 to 65%
